In US11306156:

Key:
[1] = molecular target: tissue factor (TF) antigen (UniProt P13726); test: SPR KD against wild-type D3H44 Fab (reference KD 0.157 nM)
[2] = molecular target: tissue factor (TF) antigen (UniProt P13726); test: SPR (ProteOn), Fab captured on anti-penta-His, TF analyte, 1:1 fit
[3] = molecular target: tissue factor (TF) antigen (UniProt P13726); test: SPR, Fab captured on anti-penta His, TF injected
[4] = molecular target: tissue factor (TF) antigen (UniProt P13726); test: SPR, Fab captured on anti-penta His surface, TF as analyte, 1:1 fit

Chain of tissue factor (TF) antigen (P13726 33-251 limits assumed): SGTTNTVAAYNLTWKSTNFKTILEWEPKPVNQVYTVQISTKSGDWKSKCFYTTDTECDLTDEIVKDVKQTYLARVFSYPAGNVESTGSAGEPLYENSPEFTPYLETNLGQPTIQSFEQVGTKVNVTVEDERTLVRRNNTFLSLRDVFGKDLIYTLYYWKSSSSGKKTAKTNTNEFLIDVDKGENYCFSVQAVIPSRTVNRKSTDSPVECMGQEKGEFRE

Row | Change in KD with respect to wild type (-(log(KD design) - log(KD wt))) [1] | Kd [2] [nM] | Change in KD with respect to wild type (-(log(KD design) - log(KD wt))) [3] | Kd [3] [nM] | Substance | other results
1 | 0.04 | 0.14 |  |  | D3H44 Fab heterodimer, H: Q179R, L: Q124E_T178E (H1L1 Fab of LCCA set 9810) | 
2 | 0.1 | 0.13 |  |  | D3H44 Fab heterodimer, H: Q179K, L: Q124E_T178E_T180E (H1L1 Fab of LCCA set 9786) | 
3 | -0.08 | 0.19 |  |  | D3H44 Fab heterodimer, H: L143E_K145T_Q179E, L: Q124R_T178K (H1L1 Fab of LCCA set 9660) | 
4 |  |  | 0.08 | 0.13 | D3H44 Fab heterodimer H L124E_H172T / L V133G_N137K_S174R_S176R (H1L1 Fab of LCCA Set # 9121) | 
5 |  |  | -0.07 | 0.18 | D3H44 Fab heterodimer H L124R_S186K / L V133G_S176D_T178D_T180E (H1L1 Fab of LCCA Set # 9473) | 
6 | 0.16 | 0.11 |  |  | D3H44 Fab heterodimer, H: Q179R, L: Q124E_Q160E_T178E (H1L1 Fab of LCCA set 9802) | 
7 |  |  | -0.24 | 0.27 | D3H44 Fab heterodimer H L124E_L143D_K145M / L Q124K_V133G_Q160K_S176R (H1L1 Fab of LCCA Set # 9170) | 
8 | 0.06 | 0.14 |  |  | D3H44 Fab heterodimer, H: S186R, L: Q124E_Q160E_T178E (H1L1 Fab of LCCA set 9868) | 
9 |  |  | -0.16 | 0.23 | D3H44 Fab heterodimer H L124R_Q179K / L V133G_S176D_T178E_T180E (H1L1 Fab of LCCA Set # 9426) | 
10 | 0.36 | 0.07 |  |  | D3H44 Fab heterodimer, H: S186R, L: Q124E_T180E (H1L1 Fab of LCCA sets 9891, 9893, 9896 and 9898) | 
11 |  |  | -0.02 | 0.16 | D3H44 Fab heterodimer H L124E_L143D_K145T / L Q124K_V133G_S176R_T178R (H1L1 Fab of LCCA Set # 9229, 9225, 9228) | 
12 |  |  | -0.15 | 0.22 | D3H44 Fab heterodimer H L124E_L143D_K145M / L Q124K_V133G_S176R_T178K (H1L1 Fab of LCCA Set # 9178, 9179) | 

Second part, the substance before the results:

Row | Substance | Change in KD with respect to wild type (-(log(KD design) - log(KD wt))) [1] | Kd [2] [nM] | Change in KD with respect to wild type (-(log(KD design) - log(KD wt))) [3] | Kd [3] [nM] | other results
13 | D3H44 Fab heterodimer, H: Q179K, L: Q124E_T178E (H1L1 Fab of LCCA set 9784) | 0.05 | 0.14 |  |  | 
14 | D3H44 Fab heterodimer H L124E_L143E_K145T / L Q124K_V133G_Q160K_S176R (H1L1 Fab of LCCA Set # 9275) |  |  | -0.12 | 0.2 | 
15 | D3H44 Fab heterodimer, H: L124A_Q179K, L: Q124E_V133W_S176T_T178L_T180E (H1L1 Fab of LCCA set 9099) | -0.09 | 0.19 |  |  | 
16 | D3H44 Fab heterodimer, H: L143E_K145T_Q179E, L: Q124K_T178R (H1L1 Fab of LCCA set 9648) | 0.05 | 0.14 |  |  | 
17 | D3H44 Fab heterodimer, H: S186K, L: Q124E_T180E (H1L1 Fab of LCCA sets 9853 and 9858) | 0.46 | 0.06 |  |  | 
18 | D3H44 Fab heterodimer, H: S186R, L: Q124E_T178E (H1L1 Fab of LCCA set 9888) | 0.06 | 0.14 |  |  | 
19 | D3H44 Fab heterodimer, H: L143E_K145T_Q179D, L: Q124R_T178R (H1L1 Fab of LCCA set 9632) | 0.04 | 0.14 |  |  | 
20 | D3H44 Fab heterodimer, H: L124A_L143F_Q179K, L: Q124E_V133W_S176T_T178L_T180E (H1L1 Fab of LCCA set 9096) | -0.04 | 0.17 |  |  | 
21 | D3H44 Fab heterodimer H L124R_D146N_Q179K / L Q124E_V133G_S176D_T178E_T180E (H1L1 Fab of LCCA Set # 9350, 9351) |  |  | -0.1 | 0.2 | 
22 | D3H44 Fab heterodimer H L124R_Q179K / L Q124E_V133G_S176D_T178E_T180E (H1L1 Fab of LCCA Set # 9384, 9388) |  |  | -0.15 | 0.22 | 
23 | D3H44 Fab heterodimer, H: A139C_L143E_K145T_Q179E, L: F116C_Q124R_T178R (H1L1 Fab of LCCA set 9049) | -0.01 | 0.16 |  |  | 
24 | D3H44 Fab heterodimer, H: S186K, L: Q124E_T178E_T180E (H1L1 Fab of LCCA set 9852) | 0.02 | 0.15 |  |  | 
25 | D3H44 Fab heterodimer, H: S186R, L: Q124E_T178E_T180E (H1L1 Fab of LCCA set 9890) | 0.49 | 0.05 |  |  | 
26 | D3H44 Fab heterodimer H L124R_D146N_Q179K / L V133G_S176D_T178E_T180E (H1L1 Fab of LCCA Set # 9359) |  |  | -0.01 | 0.16 | 
27 | D3H44 Fab heterodimer, H: L124A_L143F_Q179K, L: Q124E_V133W_S176T_T178E_T180E (H1L1 Fab of LCCA set 9092) | -0.02 | 0.16 |  |  | 
28 | D3H44 Fab heterodimer, H: L124A_Q179K, L: Q124E_V133W_S176T_T178E_T180E (H1L1 Fab of LCCA set 9098) | -0.03 | 0.17 |  |  | 
29 | D3H44 Fab heterodimer H L124E_L143E_K145M / L Q124K_V133G_Q160K_S176R (H1L1 Fab of LCCA Set # 9247) |  |  | -0.26 | 0.28 | 

Row | Substance | Change in KD with respect to wild type (-(log(KD design) - log(KD wt))) [1] | Kd [2] [nM] | Change in KD with respect to wild type (-(log(KD design) - log(KD wt))) [3] | Kd [3] [nM] | other results
30 | D3H44 Fab heterodimer H L124E_L143E_K145M / L Q124K_V133G_S176R_T178R (H1L1 Fab of LCCA Set # 9270) |  |  | -0.29 | 0.31 | 
31 | D3H44 Fab heterodimer, H1L1 of LCCA Sets # 9090, 9091 and 9092 (H1 L124A_L143F_Q179K; L1 Q124E_V133W_S176T_T178E_T180E) |  |  |  |  | Change in KD with respect to wild type (-(log(KD design) - log(KD wt))) [4]: -0.02; Kd [4]: 0.16 nM
32 | D3H44 Fab heterodimer, H1L1 of LCCA Set # 9819 (H1 Q39E_L143E_K145T_H172R_Q179E; L1 Q38R_Q124R_Q160K_T178R) |  |  |  |  | Change in KD with respect to wild type (-(log(KD design) - log(KD wt))) [4]: 0.03; Kd [4]: 0.15 nM
33 | D3H44 Fab heterodimer, H1L1 of LCCA Set # 9099 (H1 L124A_Q179K; L1 Q124E_V133W_S176T_T178L_T180E) |  |  |  |  | Change in KD with respect to wild type (-(log(KD design) - log(KD wt))) [4]: -0.09; Kd [4]: 0.19 nM
34 | D3H44 Fab heterodimer, H: S186K, L: Q124E_Q160E_T178E (H1L1 Fab of LCCA set 9830) | 0.41 | 0.06 |  |  | 
35 | D3H44 Fab heterodimer, H: Q179K, L: Q124E_T180E (H1L1 Fab of LCCA sets 9787, 9792 and 9794) | 0.16 | 0.11 |  |  | 
36 | D3H44 Fab heterodimer H L124R_S186K / L Q124E_V133G_S176D_T178D_T180E (H1L1 Fab of LCCA Set # 9461) |  |  | -0.23 | 0.26 | 
37 | D3H44 Fab heterodimer, H: L143E_K145T_Q179E, L: Q124R_Q160K_T178R (H1L1 Fab of LCCA set 9654) | 0.02 | 0.15 |  |  | 
38 | D3H44 Fab heterodimer, H: Q179K, L: Q124E_Q160E_T178E (H1L1 Fab of LCCA set 9758) | -0.27 | 0.29 |  |  | 
39 | D3H44 Fab heterodimer, H1L1 of LCCA Sets # 9560 and 9561 (H1 L124W_L143E_K145T_Q179E; L1 Q124R_V133A_S176T_T178R) |  |  |  |  | Change in KD with respect to wild type (-(log(KD design) - log(KD wt))) [4]: -0.13; Kd [4]: 0.21 nM
40 | D3H44 Fab heterodimer, H1L1 of LCCA Set # 9754 (H1 L45P_L143E_K145T_Q179E; L1 P44F_Q124R_Q160K_T178R) |  |  |  |  | Change in KD with respect to wild type (-(log(KD design) - log(KD wt))) [4]: -0.28; Kd [4]: 0.3 nM
41 | D3H44 Fab heterodimer, H1L1 of LCCA Set # 9760 (H1 Q179K; L1 Q124E_Q160E_T180E) |  |  |  |  | Change in KD with respect to wild type (-(log(KD design) - log(KD wt))) [4]: -0.31; Kd [4]: 0.32 nM
42 | D3H44 Fab heterodimer H L124E_L143D_K145T / L Q124K_V133G_S176R_T178K (H1L1 Fab of LCCA Set # 9220, 9216) |  |  | -0.08 | 0.19 | 
43 | D3H44 Fab heterodimer, H1L1 of LCCA Sets # 9094, 9095 and 9096 (H1 L124A_L143F_Q179K; L1 Q124E_V133W_S176T_T178L_T180E) |  |  |  |  | Change in KD with respect to wild type (-(log(KD design) - log(KD wt))) [4]: -0.04; Kd [4]: 0.17 nM
44 | D3H44 Fab heterodimer H L124R_S186K / L V133G_S176D_T178E_T180E (H1L1 Fab of LCCA Set # 9489) |  |  | -0.17 | 0.23 | 
45 | D3H44 Fab heterodimer, H1L1 of LCCA Sets # 9558 and 9559 (H1 L124W_L143E_K145T_Q179E; L1 Q124K_V133A_S176T_T178R) |  |  |  |  | Change in KD with respect to wild type (-(log(KD design) - log(KD wt))) [4]: -0.24; Kd [4]: 0.27 nM
